Experimental data taken from patent US20240110004A1 (Northwestern University, priority 2022, published 2024).
Where no end group is shown, it is not given here.

Assays:
WT mice = assay: P1 treatment of WT littermates in the efficacy study; assay type: in vivo, mouse
Text: FIG. 31A-31F: For each of FIG. 31A-31F, data is shown reflecting the results of 3 separate studies (i.e., “Batch 1+2+3”) conducted under identical conditions; “veh” refers to the vehicle saline control. For each of FIG. 31A-31C at week 6, WT: n=15; WT+P1: n=15; R62 veh: n=22; R62+HV3-TAT: n=32; and R62+P1: n=16. For each of FIG. 31D-31F at week 6, WT: n=15; WT+P1: n=15; R62 veh: n=17; R62+HV3-TAT: n=30; and R62+P1: n=13. FIG. 31A depicts the average percent of body weight gain for mice subjected to each treatment. From top to bottom, the week 13 data points correspond to: WT+P1 (˜43%); WT (˜39%); R62+P1 (˜1%); R62+HV3-TAT (˜ 4%); and R62 (˜-9%). […]
In vivo Efficacy Methods—Behavioral Analysis: All experiments in animals were conducted in accordance with protocols approved by the Institutional Animal Care and Use Committee of Northwestern University and were performed based on the National Institutes of Health Guide for the Care and Use of Laboratory Animals. […] Accordingly, hindlimb clasping was assessed with the tail suspension test weekly from the ages 7 to 13 weeks in R6/2 mice and WT littermates. Mice were suspended by the tail for 60 sec and the latency for the hindlimbs or all four paws to clasp was recorded using the following score system: clasping over 10 sec, score 3; 5-10 sec, score 2; 0-5 sec, score 1; 0 sec, score 0. […]

[1] = human, microsomes
Description: At each time point, 10 μL of supernatant was diluted with 90 μL of water with 0.1% trifluoroacetic acid.

Text for C3a: Immunocompatibility Methods: The interaction of a compound with blood will affect immune response, biodistribution, and clearance. The complement system is a key player in the innate immune response, and thus assaying the interaction between the complement system and PLPs serves as a litmus test to assess inherent inflammatory activity. Complement component C3a is implicated in all three of the complement activation pathways (classic, alternative, and lectin), thus a significant increase in C3a would warrant further investigation into specific activation of the innate and adaptive immune systems. […] In this assay, mouse weight was estimated as 35 g with an average blood volume of 2 mL for dosing preparation. Tested compounds were incubated at a ratio of 1:250 and 1:500 of compound to human serum for 4 hours prior to dilution and start of the assay. Using the C3a ELISA assay, and following manufacturer's protocol, samples were diluted with sample diluent and C3a control reconstituted with water. […] Serum samples and controls were incubated in C3a antibody coated wells for 2 hours with gentle shaking, before they were gently washed 3× with washing buffer, and primary antibody biotin solution administered to wells. […] After a final wash, developing substrate was added for 30 minutes before imaging on plate reader at 450 nM.
Description for red blood cells: Hemocompatibility Methods: Before in vivo studies could be conducted, hemocompatibility of the compounds was also assessed via activated clotting time (ACT) and hemolytic activity. Peptide-in-blood and polymer-in-blood dilutions were performed at volume ratios of 1:10000, 1:5000, 1:1000, 1:500, 1:250, and in some cases 1:100.
Regarding the hemolytic activity assay, the hemolytic assessments required 25 ml of whole human blood mixed with Na Citrate anticoagulant to be obtained. To prepare solution of erythrocytes, whole blood was centrifuged at 500 g for 5 minutes, and plasma aspirated. The same volume of plasma removed was replaced with 150 mM NaCl buffer (in Millipore water). Tube was inverted to mix, centrifuged at 500 g for 5 min, and supernatant removed, and this step repeated 2×. Finally, red blood cells (RBC) were resuspended in PBS. 10 μL of compound was added to 190 μL of diluted red blood cell erythrocyte solution in a 96 well plate (n=4). 20% Triton X acted as the positive control, and PBS acted as the negative control/vehicle. Plates were incubated at 37° C. for 1 hour. Plates were centrifuged for 5 min at 500×g to pellet intact erythrocytes. Using a multichannel pipet, 100 μl of supernatant was transferred from each well into a clear, flat-bottomed 96-well plate. Absorbance of supernatants was measured with a plate reader at 405 nM

With “P1: PLP homopolymer having peptide side chains of SEQ ID: 1 (HVLVMSATRR), made by ROMP of norbornene peptide monomer M1 (also: side chains of polynorbornene homopolymer (PLP, ROMP of norbornene peptide monomer))” the hemolytic activity (red blood cells) was “non-significant”, the “C3a complement activation compared to the vehicle” value (C3a) was “did not show a statistically significant difference” and the survival rate (WT mice; WT mice) was 100%. For the same substance, the “effects on motor ability, body weight, or neuropathology” value (WT mice; mouse, in vivo) was “no significant effects” and the liver microsomal stability [1] was “superior stability”.
